Measurements as given in article PMC11343034, “CDCA7 is an evolutionarily conserved hemimethylated DNA sensor in eukaryotes”.
Where a chain is given by its changes, count along the chain named.

T1: A. thaliana CDCA7 homolog (Arabidopsis thaliana, UniProt Q0WPT6 1-417)
T1 sequence: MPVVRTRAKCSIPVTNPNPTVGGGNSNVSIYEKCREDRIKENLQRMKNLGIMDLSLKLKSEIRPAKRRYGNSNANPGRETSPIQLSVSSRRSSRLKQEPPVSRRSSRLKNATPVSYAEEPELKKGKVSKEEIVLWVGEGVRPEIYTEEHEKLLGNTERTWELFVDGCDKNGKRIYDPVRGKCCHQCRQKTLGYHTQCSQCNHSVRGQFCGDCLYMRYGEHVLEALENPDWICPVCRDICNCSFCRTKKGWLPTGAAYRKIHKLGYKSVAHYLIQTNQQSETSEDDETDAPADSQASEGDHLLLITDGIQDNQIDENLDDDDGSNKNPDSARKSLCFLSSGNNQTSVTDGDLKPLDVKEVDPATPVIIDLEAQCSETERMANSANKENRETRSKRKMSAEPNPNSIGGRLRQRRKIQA

T2: N. vectensis CDCA7 homolog (Nematostella vectensis, UniProt A7SQU1 1-157)
T2 sequence: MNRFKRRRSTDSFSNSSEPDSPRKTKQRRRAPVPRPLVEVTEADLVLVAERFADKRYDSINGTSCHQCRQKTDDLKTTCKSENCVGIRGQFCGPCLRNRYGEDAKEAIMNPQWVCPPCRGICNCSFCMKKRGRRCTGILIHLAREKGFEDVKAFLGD

T3: C. gigas CDCA7 homolog (Crassostrea gigas, UniProt A0A8W8IWK5 1-264)
T3 sequence: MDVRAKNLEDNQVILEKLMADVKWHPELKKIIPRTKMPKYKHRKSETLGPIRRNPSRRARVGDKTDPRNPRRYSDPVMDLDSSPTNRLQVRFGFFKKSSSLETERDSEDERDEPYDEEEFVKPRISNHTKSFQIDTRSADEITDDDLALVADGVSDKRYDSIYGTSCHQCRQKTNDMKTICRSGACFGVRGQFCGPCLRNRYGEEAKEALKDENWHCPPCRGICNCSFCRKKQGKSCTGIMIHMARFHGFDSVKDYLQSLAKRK

T4: CDCA7L 322-454 (Homo sapiens, UniProt Q96GN5 322-454)
T4 sequence: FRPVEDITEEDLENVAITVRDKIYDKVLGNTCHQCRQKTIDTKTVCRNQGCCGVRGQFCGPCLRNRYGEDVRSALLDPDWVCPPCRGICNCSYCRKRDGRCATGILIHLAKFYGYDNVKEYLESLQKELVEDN

T5: hCDCA7 264-371 C339S (Homo sapiens, UniProt Q9BWT1 264-371, C339S)
T5 sequence: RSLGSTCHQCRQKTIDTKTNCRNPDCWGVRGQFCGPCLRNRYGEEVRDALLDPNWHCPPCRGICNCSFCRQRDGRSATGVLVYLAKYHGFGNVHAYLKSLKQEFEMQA

B1: 54-bp hemi-Me (F) (dsDNA)
DNA 1: GCGGGTGATGGACCCTATACGCGGCCGCCCTGGAGAATCCCGGTGCCGCGGCCG
DNA 2: CGGCCGCGGCACCGGGATTCTCCAGGGCGGCCGCGTATAGGGTCCATCACCCGC
modifications: 5mC at 41,47,49,53 of strand 1
B2: -62W free DNA (dsDNA)
DNA 1: ATCAGAATCCCGGTGCCGAGGCCGCTCAATTGGTCGTAGACAGCTCTAGCACCGCTTAAACGCACGTACGCGCTGTCCCCCGCGTTTTAACCGCCAAGGGGATTACTCCCTAGTCTCCAGGCACGTGTCAGATATATACATCGAT
DNA 2: ATCGATGTATATATCTGACACGTGCCTGGAGACTAGGGAGTAATCCCCTTGGCGGTTAAAACGCGGGGGACAGCGCGTACGTGCGTTTAAGCGGTGCTAGAGCTGTCTACGACCAATTGAGCGGCCTCGGCACCGGGATTCTGAT
modifications: 5mC at 11 of strand 1
B3: -64C free DNA (dsDNA)
DNA 1: B2 DNA 1 with A136C, T137G
DNA 2: B2 DNA 2 with A9C, T10G
modifications: 5mC at 9 of strand 2

What was measured:
[1] = biological target: T1, A. thaliana CDCA7 homolog; test: pull-down; boiled extract; Oligo EMSA: 20 mM Tris-HCl pH 7.5, 150 mM NaCl, 1 mM DTT, 0.05% NP-40, 10% glycerol, 4 C, 0.5 uM DNA; nucleosome EMSA: same with 50 mM NaCl, 0.1 uM nucleosome; conditions: protein: ivt; tags: 35S-Met; label: 5' biotin on strand 2; blunt
[2] = biological target: T2, N. vectensis CDCA7 homolog; test: as above; conditions: protein: ivt; tags: 35S-Met; label: 5' biotin on strand 2; blunt
C. gigas CDCA7 homolog = biological target: T3, C. gigas CDCA7 homolog; test: as above; conditions: protein: ivt; tags: 35S-Met; label: 5' biotin on strand 2; blunt
CDCA7L 322-454 = biological target: T4, CDCA7L 322-454; test: pull-down; egg extract; Oligo EMSA: 20 mM Tris-HCl pH 7.5, 150 mM NaCl, 1 mM DTT, 0.05% NP-40, 10% glycerol, 4 C, 0.5 uM DNA; nucleosome EMSA: same with 50 mM NaCl, 0.1 uM nucleosome; conditions: protein: ivt; tags: 35S-Met; label: 5' biotin on strand 2; blunt
hCDCA7 264-371 C339S = biological target: T5, hCDCA7 264-371 C339S; test: EMSA; free DNA preferred over nucleosome; Oligo EMSA: 20 mM Tris-HCl pH 7.5, 150 mM NaCl, 1 mM DTT, 0.05% NP-40, 10% glycerol, 4 C, 0.5 uM DNA; nucleosome EMSA: same with 50 mM NaCl, 0.1 uM nucleosome; conditions: protein: recombinant; tags: GST-SUMO removed; blunt

| Binder | binding result [1] | binding result [2] | binding result (C. gigas CDCA7 homolog) | binding result (CDCA7L 322-454) | binding result (hCDCA7 264-371 C339S) |
| --- | --- | --- | --- | --- | --- |
| B1 | binds | binds | binds | binds |  |
| B2 |  |  |  |  | binds |
| B3 |  |  |  |  | binds |
